Laboratory results: PMC2112417

Tests used:
[1] = target: EGF receptor on Swiss mouse 3T3 cells (mouse (endogenous in Swiss 3T3)) (UniProt Q01279); assay: radioligand binding
[2] = target: PDGF receptor on Swiss mouse 3T3 cells (mouse (endogenous in Swiss 3T3)) (UniProt P05622); assay: radioligand binding
UniProt P05622, sequence (P05622 32-1098): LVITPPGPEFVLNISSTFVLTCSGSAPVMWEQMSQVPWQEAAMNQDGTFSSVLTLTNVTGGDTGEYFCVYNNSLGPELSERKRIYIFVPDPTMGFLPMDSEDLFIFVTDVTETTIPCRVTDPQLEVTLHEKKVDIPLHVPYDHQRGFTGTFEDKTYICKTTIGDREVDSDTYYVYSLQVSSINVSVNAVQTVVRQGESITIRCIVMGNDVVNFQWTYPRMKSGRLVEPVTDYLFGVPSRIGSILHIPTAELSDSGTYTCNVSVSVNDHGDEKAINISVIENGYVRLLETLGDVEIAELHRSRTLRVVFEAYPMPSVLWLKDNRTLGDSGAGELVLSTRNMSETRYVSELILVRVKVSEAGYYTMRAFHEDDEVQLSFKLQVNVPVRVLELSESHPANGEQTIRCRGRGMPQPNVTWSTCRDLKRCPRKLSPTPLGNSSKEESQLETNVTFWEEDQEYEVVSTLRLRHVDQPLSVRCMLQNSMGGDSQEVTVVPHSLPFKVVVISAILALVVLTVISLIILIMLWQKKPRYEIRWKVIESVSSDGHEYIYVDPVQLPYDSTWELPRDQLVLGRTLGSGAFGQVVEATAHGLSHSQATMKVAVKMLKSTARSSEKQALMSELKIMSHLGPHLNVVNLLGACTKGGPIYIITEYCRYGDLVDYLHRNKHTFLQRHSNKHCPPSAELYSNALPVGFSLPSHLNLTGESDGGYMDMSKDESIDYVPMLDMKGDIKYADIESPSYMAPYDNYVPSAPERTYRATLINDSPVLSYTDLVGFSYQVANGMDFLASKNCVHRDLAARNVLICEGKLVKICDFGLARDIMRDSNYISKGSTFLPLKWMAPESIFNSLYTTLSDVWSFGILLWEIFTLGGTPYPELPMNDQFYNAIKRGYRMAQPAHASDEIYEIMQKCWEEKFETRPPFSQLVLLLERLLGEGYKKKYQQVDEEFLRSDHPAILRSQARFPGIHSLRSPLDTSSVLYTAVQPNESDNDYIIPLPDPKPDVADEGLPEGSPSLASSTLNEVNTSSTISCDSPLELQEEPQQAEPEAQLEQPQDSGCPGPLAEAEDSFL

| % of prebound ligand removed by 3 min 0.1% acetic acid [1] [%] | EC50 [1] [nM] | binding to acid-treated cultures, % of binding to untreated cultures [1] [%] | decrease in 125I-EGF binding after preincubation with 2 ng/ml PDGF [1] [%] | half-maximal binding after preincubation with 0.5 ng/ml PDGF [1] [nM] | half-maximal binding after preincubation with 10 ng/ml PDGF [1] [nM] | binding to acid-treated cultures, % of binding to untreated cultures [2] [%] | Substance |
| --- | --- | --- | --- | --- | --- | --- | --- |
| 78 | 1.3 | 101 | 60 | 1.6 | 2 | – | 125I-epidermal growth factor (ligand) |
| – | – | – | – | – | – | 103 | 125I-platelet-derived growth factor (from UniProt P04085 87-211; P01127 82-190) (ligand) |
